Source: paper doi:10.1101/2021.05.19.444882

Legend:
[1] = molecular target: ChAdOx1 fiber-knob protein (chimpanzee adenovirus Y25 (ChAdV-Y25)); experiment: crystal structure
[2] = molecular target: ChAdOx1 hexon protein (chimpanzee adenovirus Y25 (ChAdV-Y25)); experiment: cryo-EM structure
[3] = molecular target: ChAdOx1 penton protein (chimpanzee adenovirus Y25 (ChAdV-Y25)); experiment: cryo-EM structure
[4] = molecular target: ChAdOx1 pIX (chimpanzee adenovirus Y25 (ChAdV-Y25)); experiment: cryo-EM structure

## ChAdOx1 fiber-knob protein (domain or fragment)
[1]
  stoichiometry N: 3

## ChAdOx1 hexon protein (natural protein)
[2]
  stoichiometry N: 3

## ChAdOx1 penton protein (natural protein)
[3]
  stoichiometry N: 5

## ChAdOx1 pIX (natural protein)
[4]
  stoichiometry N: 4
